# ± gives the standard deviation.
# Assay: protein stability index of a GFP-peptide fusion (GPS, HEK-293T) (PSI 1-6); higher = more stable
# [1] = treatment: DMSO, c terminus: a fixed tail appended
# [2] = treatment: MLN4924 1 uM, 8 h, c terminus: a fixed tail appended
# [3] = treatment: DMSO, c terminus: native
# [4] = treatment: MLN4924 1 uM, 8 h, c terminus: native
# 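Note: 24-mer peptide tiles fused after GFP, lentivirally expressed, FACS-sorted into six equal bins by GFP/DsRed ratio, decoded by Illumina sequencing, PSI is the read-weighted mean bin number.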
sequence,measurement,setting,value
PDFILKVVIDKHPVRFFVHKRPHV [CTDNEP1],protein stability index,[1],2.46 ± 0.56
same,protein stability index,[2],2.44 ± 0.76
EEEEEGRFYYSEDDHGDECSYTDL [KCNA4],protein stability index,[1],5.4 ± 0.12
same,protein stability index,[2],5.33 ± 0.2
KRRKDSEEEAASPEGKRVPKRLRC [FANCE],protein stability index,[1],5.08 ± 0.3
same,protein stability index,[2],5.12 ± 0.26
YRLGYFDDALEDFKKVLDLNPGFQ [TTC32],protein stability index,[1],2.59 ± 0.2
same,protein stability index,[2],2.41 ± 0.41
FQIYDKEASGYVDRDMFFKICESL [EFHC1],protein stability index,[1],2.29 ± 0.15
same,protein stability index,[2],2.5 ± 0.15
RLQHICELFIITQLQSMPSRELAS [RHOBTB3],protein stability index,[1],3.19 ± 0.5
same,protein stability index,[2],3.33 ± 0.63
FLYSHGVPRTLSPHQYHSVHGVGM [TBX5],protein stability index,[1],2.31 ± 0.38
same,protein stability index,[2],2 ± 0.24
YSIISLLLKDKVRERIQILKTSEV [PTPN9],protein stability index,[1],2.9 ± 1.2
same,protein stability index,[2],2.44 ± 0.31
LIQPINHTTLQCLAARVIVNHRIY [FEM1C],protein stability index,[1],2.39 ± 0.3
same,protein stability index,[2],2.38 ± 0.43
YSAPPGDPLSTNYSLAPNTPINQN [NFE2L1],protein stability index,[1],4.48 ± 0.27
same,protein stability index,[2],4.54 ± 0.2
NYPYDKSFEHRVRGVRRTASTPTP [CPN1],protein stability index,[1],4.05 ± 0.4
same,protein stability index,[2],4.14 ± 0.23
DPRVQDFLQRCLESPFSRKLDLWS [NET1],protein stability index,[1],2.34 ± 0.25
same,protein stability index,[2],2.27 ± 0.25
ELQLEQSRAANQEQRANDLEQIME [CEP70],protein stability index,[1],5.1 ± 0.15
same,protein stability index,[2],5.16 ± 0.092
SCSQSHCCSRYLCMGAMSLFLPCL [SPRY1],protein stability index,[1],2.52 ± 0.44
same,protein stability index,[2],2.5 ± 0.4
DHSGFISLDEFRQTWKLFSSHMNI [PPEF2],protein stability index,[1],2.29 ± 0.26
same,protein stability index,[2],2.08 ± 0.36
NETKSQAFVSNSPKLFCPKNRSFD [PLD5],protein stability index,[1],4.21 ± 0.23
same,protein stability index,[2],3.86 ± 0.54
PCKQCKKKYVKGDVSLCRWHPKPY [FBXO34],protein stability index,[1],3.09 ± 0.34
same,protein stability index,[2],3.07 ± 0.51
LVTLNDMKAKQEALVKEREKQLAK [FAM50A],protein stability index,[1],4.23 ± 0.24
same,protein stability index,[2],4.25 ± 0.45
DWVMWAVNEFSLKGVDFQKFCMNG [ETS1],protein stability index,[1],3.16 ± 0.39
same,protein stability index,[2],3.05 ± 0.47
SEIGTSDQIVPEYQEDSDISSFFC [TRIB1],protein stability index,[1],4.39 ± 0.47
same,protein stability index,[2],4.55 ± 0.36
VSLGATGGPPAGPGGVYAGPEPPP [JUNB],protein stability index,[1],4.61 ± 0.094
same,protein stability index,[2],4.46 ± 0.31
LLLSFWKETDPLTFNFISSLKAIC [PLD5],protein stability index,[1],3.47 ± 0.96
same,protein stability index,[2],2.44 ± 0.12
LLFSGGLSESETGPMEEVERQVLP [PBXIP1],protein stability index,[1],4.06 ± 0.27
same,protein stability index,[2],4.18 ± 0.38
ADKMTAEEVDQMFQFASIDVAGNL [MYL5],protein stability index,[1],4.35 ± 0.41
same,protein stability index,[2],4.47 ± 0.2
NSNTPVDDFHTNDVCSFPNALVTK [FEM1B],protein stability index,[1],4.68 ± 0.26
same,protein stability index,[2],4.5 ± 0.18
EEEEEEEEVDLACTPTDVRDVDI [CCND1],protein stability index,[3],4.5 ± 0.5
same,protein stability index,[4],5.14 ± 0.34
KFLAKVNGSDPRSFPLWYEEALKD [MAGEA10],protein stability index,[1],2.62 ± 0.39
same,protein stability index,[2],3.06 ± 0.4
IERGASLEEVNDEGYTPLMEAARE [ANKRD17],protein stability index,[1],5.34 ± 0.23
same,protein stability index,[2],5.06 ± 0.21
LLLLLFWGVVSHSFPATLETQEQD [MMP1],protein stability index,[1],2.97 ± 0.58
same,protein stability index,[2],2.76 ± 0.82
VQEMRNKIREQNLQDIKTAGPQSQ [ADD1],protein stability index,[1],4.98 ± 0.34
same,protein stability index,[2],5.1 ± 0.1
APAKYTVFDAEGYVKPQSCIDIVI [MOSPD3],protein stability index,[1],2.83 ± 0.84
same,protein stability index,[2],2.5 ± 1.3
AAQPMQPLPESLASLHPSVSPGSP [PLAGL1],protein stability index,[1],5.2 ± 0.12
same,protein stability index,[2],5.17 ± 0.29
HFKPHGFSSDKAKAGSSEWLAVDG [ATF4],protein stability index,[1],3.89 ± 0.18
same,protein stability index,[2],3.91 ± 0.17
EALKHPWVCQRSTVASMMHRQETV [CAMK2B],protein stability index,[1],2.88 ± 0.27
same,protein stability index,[2],2.97 ± 0.21
PCCSSSPEEPLNGESYESCCPTSR [FEM1A],protein stability index,[1],4.28 ± 0.22
same,protein stability index,[2],4.64 ± 0.31
NILLDKHRMVVKIGDFGISKILSS [NEK8],protein stability index,[1],2.19 ± 0.15
same,protein stability index,[2],2.09 ± 0.17
RVLNSAKEKSSTVPIPTVNQYLYF [SOAT1],protein stability index,[1],2.29 ± 0.14
same,protein stability index,[2],2.47 ± 0.16
SPALSQGHVTGSKTTKDATGPDT [PSD2],protein stability index,[3],5.33 ± 0.28
same,protein stability index,[4],5.43 ± 0.23
SHAWEVALGGLQSWRVGVVRVRQD [TRIM35],protein stability index,[1],2.47 ± 0.26
same,protein stability index,[2],2.35 ± 0.36
DPRYELPSRKYISTKAIPEKYGAV [ZBED1],protein stability index,[1],3.55 ± 0.18
same,protein stability index,[2],3.55 ± 0.19
VGTAAVNMCLVATGGADAYYEMGI [IMPA1],protein stability index,[1],2.71 ± 0.045
same,protein stability index,[2],2.73 ± 1.1
LVLEQFLTILPTEIETWVREHCPE [ZNF449],protein stability index,[1],2.2 ± 0.47
same,protein stability index,[2],2.35 ± 0.47
EGGGTSLHVACELARPECLFLLLG [ANKRD9],protein stability index,[1],2.03 ± 0.091
same,protein stability index,[2],2.06 ± 0.67
PPTRGPPPSYGGSSRYDDYSSSRD [RBMX],protein stability index,[1],5.05 ± 0.23
same,protein stability index,[2],4.93 ± 0.19
AERVTLADFKGVLQRPSYKFFFKS [DVL3],protein stability index,[1],2.29 ± 0.3
same,protein stability index,[2],2.63 ± 0.44

# Reference: the supplement of paper PMC10567573
